Laboratory results as given in publication PMC11592666.

Key:
His-Dwg wild type = assay: GST pull-down; conditions: parent: est. 41; read off a plot
GST-Atg8a wild type = GST-Atg8a wild type (UniProt Q9W2S2); assay: GST pull-down; conditions: parent: est. 27; read off a plot
Chain of UniProt Q9W2S2 (Q9W2S2 entry or part of it): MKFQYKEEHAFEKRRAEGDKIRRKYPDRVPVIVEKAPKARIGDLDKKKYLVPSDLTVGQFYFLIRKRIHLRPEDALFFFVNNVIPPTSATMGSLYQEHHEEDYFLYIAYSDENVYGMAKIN

“GST-Atg8a wild type (from UniProt Q9W2S2) Y49A” showed an other: Fold Change (His-Dwg wild type) of 4.4.

His-Dwg wild type Y129A; I132A was tested, and the other: Fold Change (GST-Atg8a wild type) was 9.5.
